Reference: paper PMC3988563 (2014)

Target: Ribosome termination complex (70S ribosomes, fMet-STOP mRNA and fMet-tRNA^fMet) (E. coli)
Assay: with RF3:GDP

B1: Fluorescein-labeled GAQ-RF1 (single-cysteine L82C or A220C) (natural protein)
chain: MKPSIVAKLEALHERHEEVQALLGDAQTIADQERFRALSREYAQLSDVSRSFTDWQQVQEDIETAQMMLDDPEMREMAQDELREAKEKSEQLEQQLQVLLLPKDPDDERNAFLEVRAGTGGDEAALFAGDLFRMYSRYAEARRWRVEIMSASEGEHGGYKEIIAKISGDGVYGRLKFESGGHRVQRVPATESQGRIHTSASTVAVMPELPDAELPDINPCDLRIDTFRSSGAGAQHVNTTDSAIRITHLPTGIVVESQDERSQHKNKAKALSVLGARIHAAEMAKRQQAEASTRRNLLGSGDRSDRNRTYNFPQGRVTDHRINLTLYRLDEVMEGKLDMLIEPIIQEHQADQLAALSEQE
modifications: fluorescein (fluorescein-maleimide) on the introduced cysteine
  koff: 0.08 s⁻¹
